This is an account of results in patent US12344663 (CDR LIFE, dated 2025).

As usually defined, the Kd is the equilibrium constant for the complex coming apart. The koff is the first-order rate constant of dissociation. For orientation: kon means a measure of how fast the partners come together.

Where a chain is given by its changes, count along the chain named. Where only a bound is given, the exact number is not on record here.

In test [1] the target is T1, human C3b (human, UniProt P01024 23-667; P01024 749-1663, limits assumed).
T1 construct: domain: C3b; also called C3 cleavage fragments C3b
In words: SPR (Biacore T100), target immobilized, single cycle kinetics, 1:1 Langmuir fit. As to the method: (§1) The kinetic parameters of the candidates are determined using a surface plasmon resonance (SPR) and Biacore T100 device. C3 and different variants thereof (Table 19) are immobilized as a ligand on a HC30M SPR sensor chip (XanTec bionanalytics, Germany) using EDC/[…] linking chemistry. Five increasing concentrations of each molecule (analyte) are consecutively injected using the single cycle kinetics (SCK) mode to determine the kinetic parameters. Regeneration between the candidates is done with 10 mM glycine*HCl, 2 M NaCl, pH 3.5. The data is fitted to a 1:1 Langmuir binding model and the kinetic parameters of on-rate (ka), off-rate (kd), and affinity […] were determined.
A general note: SPR reads the build-up and loss of mass on a sensor chip optically.

The target of test [2] is T2, human complement C3 (human, UniProt P01024 23-1663).
T2 construct: also called human C3; native human C3
The test is described as above. As to the method: as §1

In test [3] the target is T1, human C3b. Described as above. The procedure:
as §1
The source holds these as a separate data set.

Another test addresses T3, human C3 P314L (human, UniProt P01024 23-1663, limits assumed).
T3 construct: Expressed in CHO cells with an N-terminal 6×His tag; also called C3 SNP1 P314L; C3 SNP P314L
The test is described as above. The procedure: as §1

The target of test [4] is T2, human complement C3. Described as above. As to the method: as §1
This is another data set of the same source.

For a further test, the target named is T4, human C3 R102G (human, UniProt P01024 23-1663, limits assumed).
T4 construct: Expressed in CHO cells with an N-terminal 6×His tag; also called C3 SNP2 R102G; C3 SNP R102G
Described as above. As to the method:
as §1

In a further test the target is T5, cynomolgus C3 (cynomolgus (Macaca fascicularis)).
T5 construct: also called cyno C3
Described as above. As to the method:
as §1

The target of test [5] is T6, recombinant wild-type human C3 (human, UniProt P01024 23-1663, limits assumed).
T6 construct: Expressed in CHO cells with an N-terminal 6×His tag; also called recombinant C3; wildtype C3
Described as above. The procedure: as §1

Test [6] concerns the target T2, human complement C3. In words: cell-based or functional assay.
In test [7] the target is T2, human complement C3. In words: cell-based or functional assay. This is another data set of the same source.
Test [8] has as its target T1, human C3b. In words: SPR.
The target of test [9] is T2, human complement C3. In words: SPR.
Test [10] addresses T2, human complement C3. In words: affinity of the purified scFv, method not given.
The target in test [11] is T1, human C3b. In words: method not given; reference Clone IV.
Test [12] concerns the target T2, human complement C3. In words: method not given; reference Clone IV.

T3 sequence (P01024 other isoform, or with tags, fused parts or gaps P314L P314L limits assumed): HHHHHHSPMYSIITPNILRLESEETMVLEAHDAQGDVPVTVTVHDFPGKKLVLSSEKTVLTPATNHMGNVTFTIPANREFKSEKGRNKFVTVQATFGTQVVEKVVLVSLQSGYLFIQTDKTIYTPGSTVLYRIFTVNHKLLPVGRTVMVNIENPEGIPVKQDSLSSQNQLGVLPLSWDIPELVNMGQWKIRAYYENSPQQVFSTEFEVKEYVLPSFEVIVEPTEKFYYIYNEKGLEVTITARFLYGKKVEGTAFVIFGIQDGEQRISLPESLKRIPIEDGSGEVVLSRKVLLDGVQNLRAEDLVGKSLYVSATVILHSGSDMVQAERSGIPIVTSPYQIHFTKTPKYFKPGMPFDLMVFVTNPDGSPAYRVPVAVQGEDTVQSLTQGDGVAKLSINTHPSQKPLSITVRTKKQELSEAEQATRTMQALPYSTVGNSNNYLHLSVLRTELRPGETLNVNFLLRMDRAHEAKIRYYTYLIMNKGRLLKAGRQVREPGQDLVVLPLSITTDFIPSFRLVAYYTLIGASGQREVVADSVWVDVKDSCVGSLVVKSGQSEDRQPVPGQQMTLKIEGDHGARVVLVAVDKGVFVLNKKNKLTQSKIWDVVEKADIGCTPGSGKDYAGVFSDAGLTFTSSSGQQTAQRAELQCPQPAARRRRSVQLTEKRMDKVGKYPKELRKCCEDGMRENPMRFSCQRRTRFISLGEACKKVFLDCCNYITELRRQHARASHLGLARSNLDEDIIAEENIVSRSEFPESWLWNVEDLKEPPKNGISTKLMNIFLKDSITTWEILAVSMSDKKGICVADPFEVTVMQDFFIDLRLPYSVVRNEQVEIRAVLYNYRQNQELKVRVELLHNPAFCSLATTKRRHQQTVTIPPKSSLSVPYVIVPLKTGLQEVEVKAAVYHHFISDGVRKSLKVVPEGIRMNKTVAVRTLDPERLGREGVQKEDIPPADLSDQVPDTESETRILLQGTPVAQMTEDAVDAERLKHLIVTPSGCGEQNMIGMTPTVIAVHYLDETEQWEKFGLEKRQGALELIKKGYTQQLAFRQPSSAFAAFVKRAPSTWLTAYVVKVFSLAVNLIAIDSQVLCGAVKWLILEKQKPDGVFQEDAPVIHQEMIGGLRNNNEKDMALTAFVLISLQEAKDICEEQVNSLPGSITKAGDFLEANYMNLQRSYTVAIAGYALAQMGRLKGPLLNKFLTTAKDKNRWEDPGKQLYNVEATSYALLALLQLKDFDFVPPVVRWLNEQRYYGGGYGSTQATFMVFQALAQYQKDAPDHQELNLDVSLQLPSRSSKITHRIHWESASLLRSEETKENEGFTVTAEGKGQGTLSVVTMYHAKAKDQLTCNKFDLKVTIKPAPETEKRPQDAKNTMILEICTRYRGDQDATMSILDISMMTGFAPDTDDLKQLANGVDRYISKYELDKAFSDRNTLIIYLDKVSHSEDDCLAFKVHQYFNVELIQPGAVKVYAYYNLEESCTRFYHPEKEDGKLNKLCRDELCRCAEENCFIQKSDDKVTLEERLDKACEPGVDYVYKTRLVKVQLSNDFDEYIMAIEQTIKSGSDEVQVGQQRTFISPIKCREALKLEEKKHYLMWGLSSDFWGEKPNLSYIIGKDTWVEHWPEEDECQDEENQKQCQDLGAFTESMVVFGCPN
T2 sequence (P01024 23-1663 limits assumed): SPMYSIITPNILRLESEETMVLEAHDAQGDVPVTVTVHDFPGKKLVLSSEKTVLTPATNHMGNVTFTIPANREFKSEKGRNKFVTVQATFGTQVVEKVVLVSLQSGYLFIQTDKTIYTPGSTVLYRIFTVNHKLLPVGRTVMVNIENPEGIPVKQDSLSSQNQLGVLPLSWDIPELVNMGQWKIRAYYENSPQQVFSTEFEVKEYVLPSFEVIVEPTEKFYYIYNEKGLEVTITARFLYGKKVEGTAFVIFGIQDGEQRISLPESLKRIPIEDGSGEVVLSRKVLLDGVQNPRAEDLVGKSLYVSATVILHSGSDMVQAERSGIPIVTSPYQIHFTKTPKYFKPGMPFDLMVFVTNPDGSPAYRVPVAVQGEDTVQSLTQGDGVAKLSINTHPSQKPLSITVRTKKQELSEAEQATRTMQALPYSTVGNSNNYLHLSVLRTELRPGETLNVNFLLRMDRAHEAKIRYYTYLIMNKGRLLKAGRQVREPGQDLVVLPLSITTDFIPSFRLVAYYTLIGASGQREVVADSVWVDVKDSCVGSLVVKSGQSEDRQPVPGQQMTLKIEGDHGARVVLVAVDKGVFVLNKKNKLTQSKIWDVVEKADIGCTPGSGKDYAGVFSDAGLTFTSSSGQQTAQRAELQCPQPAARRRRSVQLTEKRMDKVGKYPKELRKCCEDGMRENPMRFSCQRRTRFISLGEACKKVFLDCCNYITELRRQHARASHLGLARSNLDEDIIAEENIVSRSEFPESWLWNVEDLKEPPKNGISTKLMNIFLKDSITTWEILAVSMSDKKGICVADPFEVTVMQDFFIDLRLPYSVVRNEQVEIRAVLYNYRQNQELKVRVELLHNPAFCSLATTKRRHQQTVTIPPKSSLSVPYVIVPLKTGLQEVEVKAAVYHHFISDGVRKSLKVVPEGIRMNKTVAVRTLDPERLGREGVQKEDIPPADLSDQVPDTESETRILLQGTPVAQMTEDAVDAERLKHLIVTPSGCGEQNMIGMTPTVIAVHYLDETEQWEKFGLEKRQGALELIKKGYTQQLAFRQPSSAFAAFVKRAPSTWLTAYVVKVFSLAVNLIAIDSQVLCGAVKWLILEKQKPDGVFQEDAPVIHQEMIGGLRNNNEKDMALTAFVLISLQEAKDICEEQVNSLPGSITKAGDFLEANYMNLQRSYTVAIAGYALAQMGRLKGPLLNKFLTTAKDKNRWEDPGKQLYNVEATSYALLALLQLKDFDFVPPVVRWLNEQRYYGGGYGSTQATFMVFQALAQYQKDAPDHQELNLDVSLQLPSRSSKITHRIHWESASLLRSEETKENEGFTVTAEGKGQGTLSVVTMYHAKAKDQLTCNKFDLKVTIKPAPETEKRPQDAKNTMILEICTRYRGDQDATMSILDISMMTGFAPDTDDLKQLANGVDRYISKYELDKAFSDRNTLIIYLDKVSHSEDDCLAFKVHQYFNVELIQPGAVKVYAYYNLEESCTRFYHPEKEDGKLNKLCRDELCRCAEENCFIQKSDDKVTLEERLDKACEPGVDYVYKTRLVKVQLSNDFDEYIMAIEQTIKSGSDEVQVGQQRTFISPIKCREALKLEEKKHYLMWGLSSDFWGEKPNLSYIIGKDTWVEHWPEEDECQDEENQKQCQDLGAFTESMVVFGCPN
T4 sequence (P01024 other isoform, or with tags, fused parts or gaps R102G R102G limits assumed): as the sequence (P01024 other isoform, or with tags, fused parts or gaps P314L P314L limits assumed) above, with R86G, L298P counted along it
T6 sequence (P01024 other isoform, or with tags, fused parts or gaps limits assumed): as the sequence (P01024 other isoform, or with tags, fused parts or gaps P314L P314L limits assumed) above, with L298P counted along it
T1 sequence (P01024 23-667 limits assumed, chain 1 of 2): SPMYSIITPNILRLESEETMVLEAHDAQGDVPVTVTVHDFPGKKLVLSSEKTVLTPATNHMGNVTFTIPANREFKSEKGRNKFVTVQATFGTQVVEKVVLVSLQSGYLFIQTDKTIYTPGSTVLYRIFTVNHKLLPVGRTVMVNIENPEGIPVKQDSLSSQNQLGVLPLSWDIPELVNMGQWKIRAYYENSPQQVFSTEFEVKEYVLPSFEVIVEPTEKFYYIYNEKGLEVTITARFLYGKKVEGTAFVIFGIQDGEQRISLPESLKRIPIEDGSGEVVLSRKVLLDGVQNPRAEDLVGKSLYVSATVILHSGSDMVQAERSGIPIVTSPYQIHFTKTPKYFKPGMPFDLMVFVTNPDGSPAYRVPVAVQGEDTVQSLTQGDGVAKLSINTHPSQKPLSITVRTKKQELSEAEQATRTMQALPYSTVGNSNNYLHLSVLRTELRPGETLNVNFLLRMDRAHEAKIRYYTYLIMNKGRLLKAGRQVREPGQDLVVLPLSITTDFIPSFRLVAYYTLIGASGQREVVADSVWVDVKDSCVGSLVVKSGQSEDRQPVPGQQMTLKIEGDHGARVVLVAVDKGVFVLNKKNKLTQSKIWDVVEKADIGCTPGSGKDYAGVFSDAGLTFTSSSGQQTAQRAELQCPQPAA
T1 sequence (P01024 749-1663 limits assumed, chain 2 of 2): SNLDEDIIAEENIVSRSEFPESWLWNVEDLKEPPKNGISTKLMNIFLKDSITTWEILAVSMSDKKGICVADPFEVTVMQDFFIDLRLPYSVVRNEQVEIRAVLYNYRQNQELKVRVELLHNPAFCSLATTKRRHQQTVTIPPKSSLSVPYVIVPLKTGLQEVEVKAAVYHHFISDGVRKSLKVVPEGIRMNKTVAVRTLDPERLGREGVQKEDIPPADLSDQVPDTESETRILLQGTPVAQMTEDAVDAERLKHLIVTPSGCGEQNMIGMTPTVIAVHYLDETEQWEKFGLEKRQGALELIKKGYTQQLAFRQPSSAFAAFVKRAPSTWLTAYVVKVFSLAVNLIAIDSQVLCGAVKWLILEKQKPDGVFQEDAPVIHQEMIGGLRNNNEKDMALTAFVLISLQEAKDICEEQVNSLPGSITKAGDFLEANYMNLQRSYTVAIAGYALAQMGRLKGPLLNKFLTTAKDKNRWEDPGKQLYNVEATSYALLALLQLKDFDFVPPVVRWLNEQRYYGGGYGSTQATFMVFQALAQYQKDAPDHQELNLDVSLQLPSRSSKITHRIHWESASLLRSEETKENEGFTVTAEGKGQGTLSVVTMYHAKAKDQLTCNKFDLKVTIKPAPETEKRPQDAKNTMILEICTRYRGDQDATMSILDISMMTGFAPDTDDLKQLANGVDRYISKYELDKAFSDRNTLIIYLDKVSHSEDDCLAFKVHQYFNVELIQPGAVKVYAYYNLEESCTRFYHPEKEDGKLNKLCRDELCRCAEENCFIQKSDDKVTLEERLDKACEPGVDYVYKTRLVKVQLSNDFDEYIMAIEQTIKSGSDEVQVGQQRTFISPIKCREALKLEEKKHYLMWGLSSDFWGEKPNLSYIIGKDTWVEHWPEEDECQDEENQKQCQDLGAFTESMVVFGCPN

B1: Clone II (scFv)
scFv: MQLVLTQSPSASASLGASVKLTCTLSSAHKTYTIDWYQQQPEKCPRYLMQLKSDGSYTKGSGIPDRFSGSSSGAERYLTISSLQSEDEADYYCGTEGVGGYVFGGGTKLTVLGGGGGSGGGGSGGGGSGGGGSQVQLVESGGGSVQPGRSLRLSCAASGFTFSNYAMNWVRQAPGKGLEWVAIINVGGGTNYADSVKGRFTISRDNSKNTLYLQMNSLRAEDTASYYCARAVGYHHARLDPWGCGTSVTVSS
notes: also called scFv of the invention
Take B1: the Kd with human C3b [1] is 0.05 nM; with human complement C3 [2], 0.022 nM; with human C3b [3], 0.05 nM; in the test with human C3 P314L, less than 0.04 nM; with human complement C3 [4], 0.022 nM; in the test with human C3 R102G it was 0.021 nM. Also, the Kd with cynomolgus C3 came to 0.07 nM; in test [5] it was 0.035 nM. Besides, the dissociation rate constant (koff) in the test with human C3b [3] is 1.2e-05 s⁻¹; in the test with human C3 P314L it was less than 1.1e-05 s⁻¹; with human complement C3 [4], 5.5e-06 s⁻¹; with human C3 R102G, 7e-06 s⁻¹; in the test with cynomolgus C3, 1.5e-05 s⁻¹; in [5], 1e-05 s⁻¹. Further, the kon in the test with human C3b [3] came to 250000 M⁻¹ s⁻¹; with human C3 P314L it was 290000 M⁻¹ s⁻¹; with human complement C3 [4], 250000 M⁻¹ s⁻¹; with human C3 R102G it was 330000 M⁻¹ s⁻¹; in the test with cynomolgus C3, 210000 M⁻¹ s⁻¹; in [5], 300000 M⁻¹ s⁻¹. Further, in the test with human complement C3 [6], the “IC50 (nM), Alternative Pathway, Hemolysis (rabbit erythrocytes, human serum)” value (“IC50 (nM) … (rabbit erythrocytes, human serum)” for short) worked out at 668 nM. Also, the “IC50 (nM), Alternative Pathway, MAC deposition (WEISLAB, human serum)” value with human complement C3 [6] is 360 nM. In the test with human complement C3 [6], the “IC50 (nM), Classical Pathway, Hemolysis (antibody-sensitized sheep erythrocytes, human serum)” value (shortened to “IC50 (nM), Classical Pathway, Hemolysis”) was determined as 69 nM. For the same molecule, the “IC50 (nM), Classical Pathway, MAC deposition (WEISLAB, human serum)” value with human complement C3 [6] turned out to be 77 nM. For the same molecule, the “IC50 (nM), Lectin Pathway, MAC deposition (WEISLAB, human serum)” value (“IC50 (nM), Lectin Pathway” for short) in the test with human complement C3 [6] came out at 71 nM.

B2: Clone III (scFv)
scFv: B1 scFv with D54E
notes: as for B1
For B2, the Kd with human C3b [1] was found to be 0.127 nM; with human complement C3 [2], 0.151 nM; with human C3b [3], 0.127 nM; in the test with human C3 P314L it was 0.127 nM; in the test with human complement C3 [4], 0.151 nM; in the test with human C3 R102G, 0.115 nM. The Kd with cynomolgus C3 worked out at 0.208 nM; in test [5] it was 0.128 nM. Besides, the koff came out at 3.1e-05 s⁻¹ with human C3b [3]; 3.2e-05 s⁻¹ with human C3 P314L; 3.6e-05 s⁻¹ with human complement C3 [4]; 3.2e-05 s⁻¹ with human C3 R102G; 4.3e-05 s⁻¹ with cynomolgus C3; 3.5e-05 s⁻¹ in test [5]. The kon with human C3b [3] was found to be 250000 M⁻¹ s⁻¹; with human C3 P314L it was 250000 M⁻¹ s⁻¹; in the test with human complement C3 [4] it was 240000 M⁻¹ s⁻¹; with human C3 R102G it was 280000 M⁻¹ s⁻¹; with cynomolgus C3 it was 200000 M⁻¹ s⁻¹; in [5] it was 270000 M⁻¹ s⁻¹. Besides, in the test with human complement C3 [6], the “IC50 (nM) … (rabbit erythrocytes, human serum)” value is 745 nM. Further, the “IC50 (nM), Alternative Pathway, MAC deposition (WEISLAB, human serum)” value with human complement C3 [6] is 349 nM. Besides, the “IC50 (nM), Classical Pathway, Hemolysis” value with human complement C3 [6] worked out at 72 nM. For the same molecule, the “IC50 (nM), Classical Pathway, MAC deposition (WEISLAB, human serum)” value with human complement C3 [6] is 73 nM. For the same molecule, the “IC50 (nM), Lectin Pathway” value in the test with human complement C3 [6] was 64 nM.

B3: Clone IV (scFv)
scFv: QSVKESGGRLVTPGTPLTLTCTVSGFSLYNYAMNWVRQAPGKGLEWIGIINTDGNTNYASWAKGRFTISTTSSTTVDLKITSPTTEDTATYFCPRAVGYHHHALDPWGPGTLVTVSSGGGGSGGGGSGGGGSGGGGASELVLTQSPSVSAALGASAKLTCTLSSAHKTYTIDWYQQQQGEAPRYLMQLKSDGSYTKGTGVPDRFSGSSSGADRYLIIPSVQADDEADYYCGTDYGGGYVFGGGTQLTVTG
Regarding B3, in the test with human complement C3 [7], the “IC50, complement inhibition in the alternative pathway” value was found to be 0.28 µM and the “IC50, complement inhibition in the classical pathway” value was 0.08 µM.

B4: Clone XIII (scFv)
scFv: MQLVLTQSPSASASLGASVKLTCTLSSAHKTYTIDWYQQQPEKCPRYLMQLKSEGSYTKGTGVPDRFSGSSSGAERYLTISSLQSEDEADYYCGTEGVGGYVFGGGTKLTVLGGGGGSGGGGSGGGGSGGGGSQVQVVESGGGSVQPGRSLRLSCAVSGFSLYNYAMNWVRQAPGKGLEWIGIINVGGGTNYASWAKGRFTISTDNSKNTVYLQMNSLRAEDTASYYCARAVGYHHARLDPWGCGTSVTVSS
As for B4, in the test with human complement C3 [7], the “IC50, complement inhibition in the alternative pathway” value was 0.26 µM. In the test with human complement C3 [7], the “IC50, complement inhibition in the classical pathway” value stood at 0.06 µM. Also, the Kd in the test with human C3b [8] turned out to be 0.11 nM; with human complement C3 [9], 0.116 nM.

B5: Clone IX (scFv)
scFv: B4 scFv with C44G, E88S, D90V, E96D, G105C, G177C, A237H, R238A, C244Q
Molecule B5 yielded a Kd with human complement C3 [10] of 1.3 nM.

B6: Clone XII (scFv)
scFv: B4 scFv with E96D, G97Y, V98G
In the case of B6, in the test with human complement C3 [7], the “IC50, complement inhibition in the alternative pathway” value is 0.21 µM and the “IC50, complement inhibition in the classical pathway” value is 0.098 µM. In the test with human C3b [8], this molecule showed a Kd of 4.8 nM. Also, binding in the test with human complement C3 [9] was characterised by a dissociation constant (Kd) of 4.7 nM.

B7: Clone XIV (scFv)
scFv: B4 scFv with A237S
notes: also called Cone XIV
Regarding B7, in the test with human complement C3 [7], the “IC50, complement inhibition in the alternative pathway” value is 0.25 µM and the “IC50, complement inhibition in the classical pathway” value was 0.05 µM. Moreover, in the test with human C3b [8], binding was characterised by a dissociation constant (Kd) of 0.116 nM. Further, in the test with human complement C3 [9], the Kd was found to be 0.129 nM.

B8: Clone VII (scFv)
scFv: B4 scFv with C44G, E88S, D90V, G105C, G177C, A237H, R238A, C244Q
Turning to B8, binding in the test with human complement C3 [10] was characterised by a dissociation constant (Kd) of 1.1 nM.

B9: Clone VIII (scFv)
scFv: B4 scFv with C44G, E88S, D90V, G105C, G177C, A237S, C244Q
Regarding B9, the “fold increase in the binding affinity compared to Clone IV” value with human C3b [11] and in the test with human complement C3 [12] was approximately 10 fold throughout. The same molecule yielded a Kd in the test with human complement C3 [10] of 0.184 nM.

B10: Comparative Compound A3 (antibody, human IgG1, kappa, V domains shown)
VH: QVQLVQSGAEVKKPGASVKVSCKASGYTFTDFYMDWVRQAPGQRLEWMGYIYPHNGGTTYNQQFTGRVTITVDKSASTAYMELSSLRSEDTAVYYCARRGGFDFDYWGQGTLVTVSS
VL: DIQMTQSPSSLSASVGDRVTITCKASENVDTYVSWYQQKPGKAPKLLIYGASNRYTGVPSRFSGSGSGTDFTFTISSLQPEDIATYHCGQSHSYPLTFGQGTKLEIKR
For the molecule B10, in the test with human complement C3 [6], the “IC50 (nM) … (rabbit erythrocytes, human serum)” value is 207 nM; the “IC50 (nM), Alternative Pathway, MAC deposition (WEISLAB, human serum)” value was 548 nM; the “IC50 (nM), Classical Pathway, Hemolysis” value was found to be 56 nM; the “IC50 (nM), Classical Pathway, MAC deposition (WEISLAB, human serum)” value was 56 nM. Besides, the “IC50 (nM), Lectin Pathway” value with human complement C3 [6] is 58 nM.
